The record followed here is publication PMC6719045, “Analysis of IFITM-IFITM Interactions by a Flow Cytometry-Based FRET Assay” (International Journal of Molecular Sciences, 2019).

For this assay, the target named is T1, IFITM3-wt fused to SCFP or SYFP (interferon-induced transmembrane protein 3) (UniProt Q01628 1-133).
T1 construct: interferon-induced transmembrane protein 3 (IFITM3), wild type; One molecule stands for both FRET copies (SCFP3A fusion and SYFP2 fusion); also called SxFP-IFITM3; IFTIM3; source: 293T, transiently transfected, in cells; not shown: SCFP3A or SYFP2, N-terminal, kept
T1 sequence (Q01628 whole entry, the tested form may be a part): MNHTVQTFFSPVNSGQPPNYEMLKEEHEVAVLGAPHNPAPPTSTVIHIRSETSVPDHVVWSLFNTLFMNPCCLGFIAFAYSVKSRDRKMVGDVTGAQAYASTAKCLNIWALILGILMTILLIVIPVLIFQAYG
Put plainly: FRET or BRET; FACS-FRET in 293T cells at 48 h post transfection with titrated amounts of plasmids, total DNA kept constant with empty pCAGGS (Figure 2D). The following applies: partners not purified. In general terms: In BRET a luciferase serves as donor, and the signal depends on an acceptor being close.

B1: IFITM1 fused to SCFP or SYFP (interferon-induced transmembrane protein 1) (natural protein, UniProt P13164 1-125, looked up)
chain: MHKEEHEVAVLGPPPSTILPRSTVINIHSETSVPDHVVWSLFNTLFLNWCCLGFIAFAYSVKSRDRKMVGDVTGAQAYASTAKCLNIWALILGILMTIGFILLLVFGSVTVYHIMLQIIQEKRGY
notes: interferon-induced transmembrane protein 1 (IFITM1); One molecule stands for both FRET copies: one carries SCFP3A (donor), the other SYFP2 (acceptor); also called SCFP3A-IFITM1; SYFP2-IFITM1; source: 293T, transiently transfected, in cells; not shown: SCFP3A or SYFP2, N-terminal, kept
As to B1, the “percent of FRET-positive cells” value is about 20%.
